Consider five molecules from patent publication US9067981 (Janssen / Centocor, dated 2015).

Residue numbers refer to the chain shown, from its start.

Assay [1] has as its target T1, Aβ1-10 peptide (immobilized).
T1 construct: also called Ab1-10
T1 peptide: DAEFRHDSGY
The experiment in a line: BIACORE (SPR), immobilized Aβ1-10, bivalent interaction assumed.

The target in assay [2] is T2, Aβ1-7 peptide (amino acids 1-7 of SEQ ID NO:1).
T2 construct: also called Aβ 2-7 (the part visible in the superimposed models)
T2 peptide: DAEFRHD
The experiment in a line: X-ray crystal structure of the Fab:peptide complex.

For assay [3], the target named is T3, Aβ1-40 peptide (amino acids 1-40 of SEQ ID NO:1).
T3 construct: also called Aβ40
The experiment in a line: comparison of unit cell parameters of the Aβ1-7 and Aβ1-40 crystals.

B1: 12A11 murine IgG1 kappa monoclonal antibody (antibody, V domains shown)
VH: QVTLKESGPGILKPSQTLSLTCSFSGFSLSTSGMSVGWIRQPSGKGLEWLAHIWWDDDKYYNPSLKSRLTISKDTSRNQVFLKITSVDTADTATYYCARRTTTADYFAYWGQGTTLTVSS
VL: DVLMTQTPLSLPVSLGDQASISCRSSQSIVHSNGNTYLEWYLQKPGQSPKLLIYKVSNRFSGVPDRFSGSGSGTDFTLKISRVEAEDLGIYYCFQSSHVPLTFGAGTKLELK
B1 showed a Kd in assay [1] of 8.4 nM.

B2: Fab fragment of 12B4 (Fab, V domains shown)
VH: QVTLKESGPGILQPSQTLSLTCSFSGFSLSTNGMGVSWIRQPSGKGLEWLAHIYWDEDKRYNPSLKSRLTISKDTSNNQVFLKITNVDTADTATYYCARRRIIYDVEDYFDYWGQGTTLTVSS
VL: B1 VL with S28N, I90V, S96G
notes: Fab of the murine IgG2a kappa antibody as crystallized; also called 12B4 Fab
B2: the binding result in assay [2] is on record as “binds”.

B3: 12B4 murine IgG2a kappa monoclonal antibody (antibody, V domains shown)
VH: B2 VH
VL: B1 VL with S28N, I90V, S96G
With B3, the Kd in assay [1] was 24.5 nM.

B4: Fab fragment of 12A11 (Fab, V domains shown)
VH: B1 VH
VL: B1 VL
notes: also called 12A11 Fab
In the case of B4, the binding result in assay [2] and in assay [3] was “binds” in each case.

B5: Fab fragment of 3D6 (Fab, V domains shown)
VL: not shown
V domain: EVKLVESGGGLVKPGASLKLSCAASGFTFSNYGMSWVRQNSDKRLEWVASIRSGGGRTYYSDNVKGRFTISRENAKNTLYLQMSSLKSEDTALYYCVRYDHYSGSSDYWGQGTTITVSS
notes: also called 3D6 Fab
With B5, the binding result in assay [2] was “binds”.
